The nature of the data set: soluble on expression in E. coli; label from the status in PepcDB or PDB records.
For “MGSDKIHHHHHHMKHSDYSLIPTFVAIVEEKSYTKAAKRLGISQSAVSQGVTRLQAVFKDTLFIRGSRGVEPTQFSLDIYPTLASSVENIAFMMPEYKKFSAVKCEKQFVISSLSVFGFTILPPLSALMSQHAPLASVKIEPLNNHDFTNMLRSQHFDLVIDAHSNQYPQLRSKVIMEDTLCVMCRIDHPRLSGDSISIDEFLAEKHVTHSQLDQKGGYLSGKGLKEDEILNQRKIAWQAASIMEMLPVIECCDYIALLPQRLVDKYRHIYQLKQLHSNFLLDPIKVAMYWHSSRTNDPSHKWLREQIVKVTQQFNKL”, the “soluble on expression in E. coli” value was “not soluble”.
As to “MSLSIPTIKQVRAFVLRGGGADYHDQGDGHWIDDHISTPMGKYPEYRQSRRSFGINVLGTLVVEIEASDGNVGFAVTTGGEPAAYIVEKHLARFLEGARVTDIERIWDQMYNSTLYYGRKGLVINTISGVDLALWDLLGKVRREPVHQLLGGAVRDELQFYATGARPDLAQKMGFIGGKMPLHHGPSEGEEGLKKNLEELATMRERVGPDFWLMFDCWMSLDLNYATRLARGAREYGLKWIEEALPPDDYWGYAELRRNAPTGMMVTTGEHEATRWGFRMLLEMGCCDIIQPDVGWCGGVTELLKISALADAHNALVVPHGSSVYSYHFVATRQNSPFAEFLMMAPKADQVVPMFHPQLLGEPVPENGRMRLSRLDQPGFGVTLNPECQLHRPYTHEGHHHHHH”, the “soluble on expression in E. coli” value was “soluble”.
As for “MGSDKIHHHHHHKDDEESTSGYDPNKPIVLTDFYPPEGKLATQVILNGSNFGDSKENVKVFFNDKEASVISVKDDRMLVLAPKRASTIEDPECVVKVQVHEQIEEYKQTFDYYIQTTVTTLVGGSTSAQVNPTGTIPLSEAQFRANIDRCICVDQDKNVFFLVDNDGKFAAFMLNEEADKLISLKSDINALFNSPVLGYNSKDDIVYQFWANRDSHEVYYFDPKTDYAPTTAISSISWDDPNFPNIEGFGVWAAKCNFTMGPDGKMYSRMLGGNLVRIDVENARGENLTNGDLVGTKDGSAYGLVFDPQDENVFYFSNNDKHCIYKYDLRTKECACWAGQEGKSGYLDGPIGQAMFNKPGQMCVDSEGNIILTDTENHCIRKITMSTGYVSTLAGKPQNSGYVNGSAEDAQFKKPLGICIDNDDVMYIGDSENRAIRRLAVE”, the “soluble on expression in E. coli” value is listed as “not soluble”.
“MTSRVDPANPGSELDSAIRDTLTYSNSPVPNALLTASESGFLDAAGIELDVLSGQQGTVHFTYDQPAYTRFGGEIPPLLSEGLRAPGRTRLLGITPLLGRQGFFVRDDSPITAAADLAGRRIGVSASAIRILRGQLGDYLELDPWRQTLVALGSWEARALLHTLEHGELGVDDVELVPISSPGVDVPAEQLEESATVKGADLFPDVARGQAAVLASGDVDALYSWLPWAGELQATGARPVVDLGLDERNAYASVWTVSSGLVRQRPGLVQRLVDAAVDAGLWARDHSDAVTSLHAANLGVSTGAVGQGFGADFQQRLVPRLDHDALALLERTQQFLLTNNLLQEPVALDQWAAPEFLNNSLNRHR”: the “soluble on expression in E. coli” value is “soluble”.
As for “MAHLLQLHHVSKSYREKKAIDDLTITIPNGKIIGLLGPNGSGKTTLIKLINGLLQPNKGEIVIDGYRPCVETKKIISYLPDTTYLNENMRIKDMLEFFSDFYSDFDKSKATSLLRDLELDPEDRFKTLSKGNKEKVQLILVMSRKARLYVLDEPIGGVDPAARDYILKTIINSYCENASVIISTHLISDIEPILDEVIFLKQGRLFLSGNADDLRQEYQQSIDSLFRETYKV”, the entry is “not soluble”; as for “MSLKLLAIDSATQAATCAVMDDDKLLGEITFNYKKQHSVILMSMIDDMLNTVNLKVEDLDGFVVSKGPGSFTGLRIGMSIVKGLSEGSKKPFVSVSSLDALAYNMAYTPGIICPVLDALRDNVYTALYTFEGNSLKRLTEYDAIHITELIELLKGYDSQVTFIGDAVYKFRNFFDENVENVQFAPAHLNLVRSSSLCELGMELLKSGVKDDLITSAPIYIRKSQAEREYEKRTGMSIDDEGHHHHHH”, “soluble”.
As to “GLCDGHMHIESGMLTPAEFAAAVIPHGTTTMFTDPHEIANVLGLAGVRMMHDEALMQPVNIFTQMPSCAPSAPGLETTGYEITPEDVAEAMTWPGIIGLGEMMNFPGVTNADPKMLAEIAATQRAGKTVGGHYASPDLGPAFAAYVAGGPADDHEGTCEADAIARVRQGMRSMMRLGSAWYDVETQITAVTEKGLDPRNFILCTDDCHSATLVNDGHMNRVVRHAIACGCDPLIALQMATINTATHFGLERELGSTAPGRRADVILTSDLRDLPIELVIARGQVVAENGKIAVDCPHYDWPD”, the “soluble on expression in E. coli” value is listed as “not soluble”.

These data come from the DeepSol protein solubility set.
